Biological target: T1, cynomolgus monkey IL-6 (cynomolgus monkey, UniProt P79341 28-212, limits assumed)
T1 sequence (looked up): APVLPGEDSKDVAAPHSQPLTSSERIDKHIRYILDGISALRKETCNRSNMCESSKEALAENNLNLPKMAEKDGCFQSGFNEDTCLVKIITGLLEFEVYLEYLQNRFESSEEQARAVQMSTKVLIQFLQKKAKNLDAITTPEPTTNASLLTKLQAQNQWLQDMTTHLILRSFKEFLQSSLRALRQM
Assay: tissue cross-reactivity study, cynomolgus monkey tissues

B1: clazakizumab (antibody, human IgG1, kappa, N297A, V domains shown)
VH: EVQLVESGGGLVQPGGSLRLSCAASGFSLSNYYVTWVRQAPGKGLEWVGIIYGSDETAYATSAIGRFTISRDNSKNTLYLQMNSLRAEDTAVYYCARDDSSDWDAKFNLWGQGTLVTVSS
VL: AIQMTQSPSSLSASVGDRVTITCQASQSINNELSWYQQKPGKAPKLLIYRASTLASGVPSRFSGSGSGTDFTLTISSLQPDDFATYYCQQGYSLRNIDNAFGGGTKVEIKR
notes: Humanized IgG1 monoclonal antibody; also called anti-IL-6 mAb clazakizumab
  binding result: binds

From patent US20230174640A1 (VITAERIS, published 2023)
